Experimental data as given in publication PMC10323027, “Glucagon-like peptide 1 aggregates into low-molecular-weight oligomers off-pathway to fibrillation” (Biophysical Journal, 2023).
Where “and” joins values, the source holds several entries; their conditions need not be identical. Equal values may be shown once.

Target: the molecule itself
Assay: SEC; peptide at 43, 85 or 150 uM incubated in aqueous buffer at pH 7.0 or 8.0 at 37°C with 180 rpm agitation, aliquots filtered (0.22 um) and run on Superose 12 10/300 or Superdex 75 10/300 at room temperature, 0.75 mL/min, elution buffer as incubation buffer; oligomer size from calibration with globular protein standards

B1: Glucagon-like peptide 1, GLP-1(7–37) (peptide)
chain: HAEGTFTSDVSSYLEGQAAKEFIAWLVKGRG
notes: Glucagon-like peptide 1 (7-37), 31-residue peptide hormone cut from proglucagon; free C-terminus (-OH); 3355 Da; Forms non-covalent low-molecular-weight oligomers of varying size; written as the single chain
stoichiometry N: 3 and 5
